Holding throughout (test): co-IP; LUMIER in HEK293TN cells: Prot-A fusion co-transfected with Renilla luciferase fusion (AN always the luciferase fusion with the interactors); luciferase activity before (input) and after pulldown; percentage pulldown = pulldown/input x 100; empty vectors as negative control; positive if more than two times the background
What all share (details): partners not purified

In test [1] the target is T1, GLYCINE-RICH RNA-BINDING PROTEIN 2 (GRP2), Prot-A fusion (Arabidopsis thaliana, UniProt Q9SVM8 35-158).
T1 construct: CDS amplified from Col-0 cDNA; source: HEK293TN cells, transfected; not shown: Protein A (Staphylococcus aureus), N-terminal, kept
T1 sequence (looked up): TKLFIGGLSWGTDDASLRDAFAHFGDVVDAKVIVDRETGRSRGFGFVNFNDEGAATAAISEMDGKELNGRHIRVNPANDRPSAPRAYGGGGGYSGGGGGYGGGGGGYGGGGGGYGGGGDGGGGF

Test [2] has as its target T2, RNA BINDING PROTEIN 47C (RBP47C), Prot-A fusion (Arabidopsis thaliana, UniProt Q9SX79 1-432).
T2 construct: RBP47C, Arabidopsis thaliana, AT1G47490; CDS amplified from Col-0 cDNA; source: HEK293TN cells, transfected; not shown: Protein A (Staphylococcus aureus), N-terminal, kept
T2 sequence (looked up): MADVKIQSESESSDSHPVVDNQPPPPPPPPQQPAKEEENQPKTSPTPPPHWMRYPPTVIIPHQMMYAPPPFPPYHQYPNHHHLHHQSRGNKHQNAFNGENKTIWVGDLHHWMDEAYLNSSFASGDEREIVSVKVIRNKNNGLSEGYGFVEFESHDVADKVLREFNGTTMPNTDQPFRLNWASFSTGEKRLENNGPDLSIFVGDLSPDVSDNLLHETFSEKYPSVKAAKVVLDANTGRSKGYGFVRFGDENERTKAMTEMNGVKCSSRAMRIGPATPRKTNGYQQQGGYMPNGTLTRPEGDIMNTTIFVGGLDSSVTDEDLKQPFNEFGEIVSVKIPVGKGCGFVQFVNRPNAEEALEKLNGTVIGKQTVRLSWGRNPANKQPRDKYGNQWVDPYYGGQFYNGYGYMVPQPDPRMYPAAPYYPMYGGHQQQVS

Test [3] concerns the target T3, RNA BINDING PROTEIN 47B (RBP47B), Prot-A fusion (Arabidopsis thaliana, UniProt Q0WW84 1-435).
T3 construct: RBP47B, Arabidopsis thaliana, AT3G19130; CDS amplified from Col-0 cDNA; source: HEK293TN cells, transfected; not shown: Protein A (Staphylococcus aureus), N-terminal, kept
T3 sequence (looked up): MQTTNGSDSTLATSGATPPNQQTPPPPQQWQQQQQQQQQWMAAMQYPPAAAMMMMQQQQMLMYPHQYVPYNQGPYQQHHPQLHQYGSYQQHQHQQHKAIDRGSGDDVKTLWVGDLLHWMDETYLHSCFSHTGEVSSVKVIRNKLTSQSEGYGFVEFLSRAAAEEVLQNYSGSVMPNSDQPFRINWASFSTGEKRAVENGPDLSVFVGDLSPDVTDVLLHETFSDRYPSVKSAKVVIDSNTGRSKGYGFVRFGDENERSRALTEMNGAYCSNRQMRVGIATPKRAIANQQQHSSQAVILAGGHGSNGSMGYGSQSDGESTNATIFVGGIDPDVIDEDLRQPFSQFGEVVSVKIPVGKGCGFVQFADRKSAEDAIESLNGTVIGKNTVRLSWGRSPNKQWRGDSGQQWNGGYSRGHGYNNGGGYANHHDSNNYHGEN

For test [4], the target named is T4, PO…-BINDING PROTEIN RBP47C′, Prot-A fusion (Arabidopsis thaliana, UniProt Q9SX80 1-434).
T4 construct: RBP47C′, Arabidopsis thaliana, AT1G47500; CDS amplified from Col-0 cDNA; source: HEK293TN cells, transfected; not shown: Protein A (Staphylococcus aureus), N-terminal, kept
T4 sequence (looked up): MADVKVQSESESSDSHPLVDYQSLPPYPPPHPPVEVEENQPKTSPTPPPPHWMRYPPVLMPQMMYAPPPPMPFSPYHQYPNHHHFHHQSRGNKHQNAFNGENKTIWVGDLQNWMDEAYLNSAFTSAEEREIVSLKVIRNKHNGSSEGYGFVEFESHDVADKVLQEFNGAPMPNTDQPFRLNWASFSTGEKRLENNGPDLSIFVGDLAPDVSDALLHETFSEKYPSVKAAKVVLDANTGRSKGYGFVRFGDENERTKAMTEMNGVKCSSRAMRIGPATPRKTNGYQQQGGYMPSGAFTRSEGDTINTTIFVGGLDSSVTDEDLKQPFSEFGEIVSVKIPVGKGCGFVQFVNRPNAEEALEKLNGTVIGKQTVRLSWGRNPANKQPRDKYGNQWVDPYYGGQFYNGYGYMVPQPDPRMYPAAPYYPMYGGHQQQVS

B1: AN, Renilla luciferase fusion (LUMIER) (natural protein, Arabidopsis thaliana, UniProt O23702 1-636, looked up)
chain: MSKIRSSATMPHRDQPSPASPHVVTLNCIEDCALEQDSLAGVAGVEYVPLSRIADGKIESATAVLLHSLAYLPRAAQRRLRPHQLILCLGSADRAVDSTLAADLGLRLVHVDTSRAEEIADTVMALILGLLRRTHLLSRHALSASGWLGSLQPLCRGMRRCRGMVLGIVGRSVSARYLASRSLAFKMSVLYFDVPEGDEERIRPSRFPRAARRMDTLNDLLAASDVISLHCALTNDTVQILNAECLQHIKPGAFLVNTGSCQLLDDCAVKQLLIDGTIAGCALDGAEGPQWMEAWVKEMPNVLILPRSADYSEEVWMEIREKAISILHSFFLDGVIPSNTVSDEEVEESEASEEEEQSPSKHEKLAIVESTSRQQGESTLTSTEIVRREASELKESLSPGQQHVSQNTAVKPEGRRSRSGKKAKKRHSQQKYMQKTDGSSGLNEESTSRRDDIAMSDTEEVLSSSSRCASPEDSRSRKTPLEVMQESSPNQLVMSSKKFIGKSSELLKDGYVVALYAKDLSGLHVSRQRTKNGGWFLDTLSNVSKRDPAAQFIIAYRNKDTVGLRSFAAGGKLLQINRRMEFVFASHSFDVWESWSLEGSLDECRLVNCRNSSAVLDVRVEILAMVGDDGITRWID
notes: ANGUSTIFOLIA (AN), Arabidopsis thaliana, AT1G01510; CDS amplified from Col-0 cDNA; in the dimerisation test the second copy must have been the N-terminal protein A fusion (surmised from the LUMIER format); also called wild-type AN; source: HEK293TN cells, transfected; not shown: Renilla reniformis luciferase, N-terminal, kept
Consider B1, for which the “fold change from background” value was found to be 2.52 fold in test [1], 4.97 fold in test [2], 3.53 fold in test [3] and 3.07 fold in test [4]. Also, the percentage pulldown came out at 0.24% in test [1], 0.46% in test [2], 0.33% in test [3] and 0.29% in test [4].

(Values after publication PMC5469197, “ANGUSTIFOLIA, a Plant Homolog of CtBP/BARS Localizes to Stress Granules and Regulates Their Formation” (Frontiers in Plant Science, 2017).)
